Source: patent US20130202593A1

Legend:
[1] = target: ΔRING-ΔBOX TRIM21 (human) (UniProt P19474); assay: steady-state fluorescence titration: quenching of intrinsic TRIM21 tryptophan fluorescence on titration of IgG
[2] = target: recombinant full-length TRIM21 (human) (UniProt P19474); assay: as above
[3] = target: IgG; assay: steady-state fluorescence titration (quenching of TRIM21 tryptophan fluorescence on titration of IgG)
[4] = target: IgG; assay: fluorescence titration spectroscopy

Row | EC50 (read off the curve) [1] | EC50 (read off the curve) [2] | Kd [3] | Kd [4] | Substance
1 | 3 nM | 1 nM |  |  | IgG (antibody)
2 |  |  | 0.6 nM | < 1 nM | recombinant full-length TRIM21 (from UniProt P19474 1-475) (receptor)
3 |  |  | 0.9 nM | < 1 nM | ΔRING-ΔBOX TRIM21 (from UniProt P19474 129-475) (receptor)
